Test results: article PMC11087952, “Biochemical characterization of Escherichia coli DnaC variants that alter DnaB helicase loading onto DNA” (The Journal of Biological Chemistry, 2024)

T1: DnaC 809 (Escherichia coli, UniProt P0AEF0 1-245, E176G)
T1 sequence: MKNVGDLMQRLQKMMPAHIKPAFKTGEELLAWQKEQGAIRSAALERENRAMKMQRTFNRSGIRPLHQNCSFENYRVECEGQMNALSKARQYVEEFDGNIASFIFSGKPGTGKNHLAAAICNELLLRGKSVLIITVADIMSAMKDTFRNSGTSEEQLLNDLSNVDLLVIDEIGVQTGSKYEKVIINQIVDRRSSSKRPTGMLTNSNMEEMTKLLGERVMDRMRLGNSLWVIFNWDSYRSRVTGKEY

T2: DnaC 809,820 (Escherichia coli, UniProt P0AEF0 1-245, E176G;K178N)
T2 sequence: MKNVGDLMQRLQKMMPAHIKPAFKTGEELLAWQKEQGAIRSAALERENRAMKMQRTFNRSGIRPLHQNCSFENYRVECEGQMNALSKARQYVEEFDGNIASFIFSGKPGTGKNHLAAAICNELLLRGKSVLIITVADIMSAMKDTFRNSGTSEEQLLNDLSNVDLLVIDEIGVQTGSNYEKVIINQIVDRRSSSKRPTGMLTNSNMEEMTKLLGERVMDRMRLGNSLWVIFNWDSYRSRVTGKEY

T3: DnaC 1331 (Escherichia coli, UniProt P0AEF0 1-245, A84T)
T3 sequence: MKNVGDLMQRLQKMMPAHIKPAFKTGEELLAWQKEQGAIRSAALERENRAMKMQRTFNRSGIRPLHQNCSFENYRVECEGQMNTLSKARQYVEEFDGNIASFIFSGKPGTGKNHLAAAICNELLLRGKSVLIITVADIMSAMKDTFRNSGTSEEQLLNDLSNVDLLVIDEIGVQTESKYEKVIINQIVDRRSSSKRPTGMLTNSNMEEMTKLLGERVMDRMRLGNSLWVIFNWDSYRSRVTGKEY

T4: DnaC (wild-type) (Escherichia coli, UniProt P0AEF0 1-245)
T4 sequence: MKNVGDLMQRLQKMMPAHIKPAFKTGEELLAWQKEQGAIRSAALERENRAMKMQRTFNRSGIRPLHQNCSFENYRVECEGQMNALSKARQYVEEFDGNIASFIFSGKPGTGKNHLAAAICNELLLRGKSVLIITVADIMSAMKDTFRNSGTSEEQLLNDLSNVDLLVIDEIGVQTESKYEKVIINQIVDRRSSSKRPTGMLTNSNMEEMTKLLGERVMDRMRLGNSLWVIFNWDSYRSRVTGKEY


Assays:
[1] = target: T5, Escherichia coli DnaB replicative helicase (wild-type) (E. coli, UniProt P0ACB0 1-471); test: SEC; 10 nmol DnaB and 12 nmol DnaC (1.2:1 DnaC:DnaB) in 20 mM Tris-HCl pH 8.5, 0.2 M NaCl, 5 mM MgCl2, 1 mM BME, 1 mM ATP; analytical size exclusion column (Increase 10/300 GL); peak fractions analysed by PAGE for DnaB and DnaC; conditions: both partners purified
T5 construct: DnaB replicative DNA helicase, E. coli, wild-type; The introduction describes DnaB as a closed ring-shaped hexamer; also called DnaB helicase

[2] = target: T1, DnaC 809; test: fluorescence anisotropy; 5 mM Mg2+, 2 mM ATP; similar to wild-type; 50 mM HEPES-KOH pH 7.5, 125 mM KCl, 10% glycerol, 5 mM MgCl2, 2 mM ATP, 2 mM DTT, 0.1 mg/ml BSA, 10 nM DNA, 0-50 uM DnaC; 37 C 15 min, read at 25 C; saturation; conditions: protein: recombinant; tags: 6XHis-MBP, TEV cleaved; periplasmic localization signal on expression construct; single strand
[3] = target: T2, DnaC 809,820; test: as above; conditions: protein: recombinant; tags: 6XHis-MBP, TEV cleaved; periplasmic localization signal on expression construct; single strand
[4] = target: T3, DnaC 1331; test: as above; conditions: protein: recombinant; tags: 6XHis-MBP, TEV cleaved; periplasmic localization signal on expression construct; single strand
[5] = target: T4, DnaC (wild-type); test: fluorescence anisotropy; 5 mM Mg2+, 2 mM ATP; 50 mM HEPES-KOH pH 7.5, 125 mM KCl, 10% glycerol, 5 mM MgCl2, 2 mM ATP, 2 mM DTT, 0.1 mg/ml BSA, 10 nM DNA, 0-50 uM DnaC; 37 C 15 min, read at 25 C; saturation; conditions: protein: recombinant; tags: 6XHis-MBP removed by TEV; single strand

T5 sequence (P0ACB0 whole entry): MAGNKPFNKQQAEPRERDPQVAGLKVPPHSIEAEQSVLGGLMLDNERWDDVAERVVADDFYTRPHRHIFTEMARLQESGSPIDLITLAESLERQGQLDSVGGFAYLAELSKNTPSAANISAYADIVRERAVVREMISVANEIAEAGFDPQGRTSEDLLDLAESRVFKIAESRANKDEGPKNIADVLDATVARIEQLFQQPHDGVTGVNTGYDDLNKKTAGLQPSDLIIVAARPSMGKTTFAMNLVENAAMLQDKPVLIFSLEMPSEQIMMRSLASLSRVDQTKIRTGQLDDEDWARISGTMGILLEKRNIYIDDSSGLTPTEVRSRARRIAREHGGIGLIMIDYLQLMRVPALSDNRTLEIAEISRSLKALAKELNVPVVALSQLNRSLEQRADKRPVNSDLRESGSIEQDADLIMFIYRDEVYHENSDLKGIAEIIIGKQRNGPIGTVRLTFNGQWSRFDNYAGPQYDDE

| Binder | binding result [1] | binding result [2] | binding result [3] | binding result [4] | binding result [5] |
| --- | --- | --- | --- | --- | --- |
| DnaC 809 (E176G) (natural protein, E. coli, UniProt P0AEF0 1-245, looked up, DnaC helicase loader, E. coli, with E176G; Point mutation introduced by site-directed mutagenesis; the allele was first isolated as a suppressor of priA deficiency; also called product of dnaC809) MKNVGDLMQRLQKMMPAHIKPAFKTGEELLAWQKEQGAIRSAALERENRAMKMQRTFNRSGIRPLHQNCSFENYRVECEGQMNALSKARQYVEEFDGNIASFIFSGKPGTGKNHLAAAICNELLLRGKSVLIITVADIMSAMKDTFRNSGTSEEQLLNDLSNVDLLVIDEIGVQTGSKYEKVIINQIVDRRSSSKRPTGMLTNSNMEEMTKLLGERVMDRMRLGNSLWVIFNWDSYRSRVTGKEY | binds | – | – | – | – |
| DnaC 811 (I184F) (natural protein, E. coli, UniProt P0AEF0 1-245, looked up, DnaC helicase loader, E. coli, with I184F; Point mutation introduced by site-directed mutagenesis; also called product of dnaC811) MKNVGDLMQRLQKMMPAHIKPAFKTGEELLAWQKEQGAIRSAALERENRAMKMQRTFNRSGIRPLHQNCSFENYRVECEGQMNALSKARQYVEEFDGNIASFIFSGKPGTGKNHLAAAICNELLLRGKSVLIITVADIMSAMKDTFRNSGTSEEQLLNDLSNVDLLVIDEIGVQTESKYEKVIFNQIVDRRSSSKRPTGMLTNSNMEEMTKLLGERVMDRMRLGNSLWVIFNWDSYRSRVTGKEY | binds | – | – | – | – |
| DnaC 809,820 (E176G, K178N) (natural protein, E. coli, UniProt P0AEF0 1-245, looked up, DnaC helicase loader, E. coli, with E176G and K178N; Point mutations introduced by site-directed mutagenesis; also called product of dnaC809,820) MKNVGDLMQRLQKMMPAHIKPAFKTGEELLAWQKEQGAIRSAALERENRAMKMQRTFNRSGIRPLHQNCSFENYRVECEGQMNALSKARQYVEEFDGNIASFIFSGKPGTGKNHLAAAICNELLLRGKSVLIITVADIMSAMKDTFRNSGTSEEQLLNDLSNVDLLVIDEIGVQTGSNYEKVIINQIVDRRSSSKRPTGMLTNSNMEEMTKLLGERVMDRMRLGNSLWVIFNWDSYRSRVTGKEY | binds | – | – | – | – |
| TTTTTTTTTTTTTTTTTTTT (ssDNA) [dT20] | – | binds | binds | binds | binds |
